From US20040132642A1, “Methods of inhibiting metastasis or growth of a tumor cell” (Government of the U.S.A., represented by the Secretary, …, priority 2002, published 2004)

Legend:
[1] = target: human CXC Chemokine Receptor-4 (CXCR4) (human) (UniProt P61073); test: cell-based or functional assay
[2] = target: LMEC-derived CXCL12 (endogenous CXCL12 of human lung microvascular endothelial cells) (human) (UniProt P48061); test: cell-based or functional assay
Chain of LMEC-derived CXCL12 (endogenous CXCL12 of human lung microvascular endothelial cells) (human) (P48061 22-93 limits assumed): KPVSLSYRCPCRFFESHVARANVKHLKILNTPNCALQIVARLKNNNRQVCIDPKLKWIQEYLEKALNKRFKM

Chain of human CXC Chemokine Receptor-4 (CXCR4) (human) (P61073 whole entry): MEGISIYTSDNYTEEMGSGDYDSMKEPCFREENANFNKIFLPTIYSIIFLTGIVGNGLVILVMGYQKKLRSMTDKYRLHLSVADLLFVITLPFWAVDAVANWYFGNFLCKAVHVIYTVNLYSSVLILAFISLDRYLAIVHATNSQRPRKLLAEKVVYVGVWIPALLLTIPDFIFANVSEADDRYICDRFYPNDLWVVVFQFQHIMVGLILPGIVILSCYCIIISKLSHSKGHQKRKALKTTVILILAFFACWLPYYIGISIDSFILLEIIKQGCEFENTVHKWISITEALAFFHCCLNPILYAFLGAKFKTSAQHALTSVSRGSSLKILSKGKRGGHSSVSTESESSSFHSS
Chain of recombinant CXCL12 (SDF-1) (ligand) (P48061 22-93): as the sequence (P48061 22-93 limits assumed) above
Chain of CCL19 (control chemokine) (ligand) (Q99731 22-98): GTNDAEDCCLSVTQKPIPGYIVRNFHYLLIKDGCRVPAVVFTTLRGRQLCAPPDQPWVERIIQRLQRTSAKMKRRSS

“Mouse anti-human CXCR4 mAb (clone 44716.111, R&D Systems) (antibody)” gave an arrest on TNF-α-stimulated LMEC of CXCR4-B16 cells pretreated with anti-CXCR4 mAb (10 µg/ml) (Mean adherent cells/field) [1] of 7.5.

In the case of recombinant CXCL12 (SDF-1) (ligand), the adhesion of CXCR4-B16 cells to CXCL12-treated DMEC (adherent cells, parallel plate flow chamber) [1] is reported as 85.2, the adhesion of CXCR4-B16 cells to CXCL12-treated LMEC (adherent cells) [1] is reported as 321 and the arrest of CXCR4-B16 cells on TNFα-treated LMEC under flow, with exogenous CXCL12 (Mean adherent cells/field) [1] is reported as 170. It also gave an arrest of CXCR4-B16 cells on plates co-coated with VCAM-1/Ig and CXCL12 at 1.5 dynes/cm^2 (Mean adherent cells/field) [1] of 87.2, a growth of CXCR4-B16 cells in low serum, cell count at 24 h [1] of 19.3 and a growth of CXCR4-B16 cells in low serum, cell count at 48 h [1] of 35.3.

In the case of “LMEC-derived CXCL12 (endogenous CXCL12 of human lung microvascular endothelial cells) (from UniProt P48061 22-93) (ligand)”, the arrest of CXCR4-B16 against pLNCX2-B16 cells on LMEC, no exogenous CXCL12 [1] is reported as 3 times and the arrest of CXCR4-B16 cells on TNFα-treated LMEC under flow, no exogenous CXCL12 (Mean adherent cells/field) [1] is reported as 102.

For “anti-human CXCL12 mAb (clone 77014.111, R&D Systems) (antibody)”, the arrest of CXCR4-B16 cells on LMEC pretreated with anti-CXCL12 mAb (100 µg/ml) (Mean adherent cells/field) [2] was 41.2.

For CCL19 (control chemokine) (ligand), the adhesion of CXCR4-B16 cells to chemokine-treated DMEC (adherent cells, parallel plate flow chamber) [1] was 6.8 and the arrest of CXCR4-B16 cells on plates co-coated with VCAM-1/Ig and CCL19 at 1.5 dynes/cm^2 (Mean adherent cells/field) [1] was 17.2.
